Measurements reported in the nanobody polyreactivity screen of Harvey et al. (2022).

Assay: yeast display, Sf9 membrane polyspecificity reagent, FACS + sequencing; frameworks hold sequencing errors
Method in brief: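 Galactose induction of a Saccharomyces cerevisiae BJ5465 synthetic nanobody display library ran 36–48 hours. The cells were then stained for 1 hour at 4 °C with 10% biotinylated, detergent-solubilized Sf9 membrane reagent, pulled down on streptavidin microbeads and FACS-sorted into low and high (top ~1%) gates on expression and reagent-binding fluorescence. Labels for polyreactivity follow the gate of origin.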

| Sequence | polyreactivity (PSR sort gate) |
| --- | --- |
| QVQLVESGGGLVQAGGSLRLSCAASGGISTAYTMGWYRQAPGKERELVADITRSGGRTYYADSVKGRFTISRDNAKNTVYLQMNSLKPEDTAVYYCARTYYYRFNYWGQGTQVTVSS | high polyreactivity |
| QVQLVESGGGLVQAGGSLRLSCAASGSIFSFNAMGWYRQAPGKERELVAVITQRGGSTYYADSVKGRFTISRDNAKNTVYLQMNSLKPEDTAVYYCAARTPRGYYYWGQGTQVTVSS | high polyreactivity |
| QVQLVESGGGLVQAGGSLRLSCAASGRIFSYYAMGWYRQAPRKERELVAGINWRGGRTYYADTVKGRFTISRDNAKITGYLQMNSLKPEETAVYYCAGDHPETPYDYWGQGTQVTVSS | high polyreactivity |
| QVQLVESGGGLVQAGGSLRLSCAASGSTFPGYAMGWYRQAPGKERELVAAISASGGSTYYADSVKGRFTISRDNAKNTVYLQMNSLKPEDTAVYYCAKVLSRGASADDYWGQGTQVTVSS | low polyreactivity |
| QVQLVESGGGLVQAGGSLRLSCAASGGTFQPNAMGWYRQAPGKERELVAAISWSDGSTYYADSVKGRFTISRDNAKNTVYLQMNSLKPEDTAVYYCAADFTYYDSPYRDYNYESWGQGTQVTVSS | low polyreactivity |
| PVQLVESGGGLVQAGGSLRLSCAASGFTFTRYVMGWYRQAPGKERELVAAISGSGGSTNYADSVKGRFTISRDNAKNTVSLQMISLKPEDTAVYYCADRFVGSRYRFDYWGQGTQVTVSS | high polyreactivity |
| QVHLVESGGGLVQAGGRLRLSCAASGGTFYYIAMGWYRQAPGKERELVAAISWSGVSTSYADTVKGRFTISRDNEKNTVYLQMNSLKPEDTAVYYCAAGPFYYTGFEGDYWGQGTQVTVSS | high polyreactivity |
| QVQLGESGGGLVQAGGSLRLSCAASGSTFRINAMGWYRQAPGKERELVADINSGGNTTYADSVKGRFTISRDNAKNTVYLQMNSLKPEDTAVYYCAAPRTYYSELTSPYDYCGQGTQVTVSS | low polyreactivity |
| QVQLVESGGGLVQAGGSLRLSCAASGYTFVYNGMGWYRQAPGKERELVAAIRRRTGTTYYADSVKGRFTISRDNAKNTVYLQMNSLKPEDTAVYYCAATGFWGYDWGQGTQVTVSS | high polyreactivity |
| QVQLVESGGGLLQAGGSLRLSCAASRSTFFWYAMGWYRQAPGKERELVAANSKTGGSTYYADSVKGRFTISRDNAKNTVYLQMNSLKPEDTAVYYCARDYSWYYYGSQLFAHDYWGQGTQVTVSS | low polyreactivity |
| QVQHVESGGRLVQAGGSLRLSCAASGFIFPNYAMGWYRQAPGKERELVAVISRSGGSTYYADSVKGRFTISRDNAKNTVYLQMNSLKPEDTAVYYCNAVARGYGYDYWGQGTQVTVSS | high polyreactivity |
| QVQLVESGGGLVQAGGSLRLSCAASGRIFDANAMGWYRQAPGKERELVAAITSSGGRTYYADSVKGRFTISRDNAKNTVYLQMNSLKPEDTAVYYCARAGRSWDTLYKYYLEHDYWGQGTQVTVSS | low polyreactivity |
| QVQLVESGGGLVQAGGSLRLSCAASGSTFNKYAMGWYRPPPGKERELVAAISWTGGHTYYADSVKGRFTFSRDNAKNTVYLQMNSLKPEDTAVYYCNTVNSRPKYNYWGQGTQVTVSS | high polyreactivity |
| QVQLVESGGGLVQAGGSLRLSCAASVSIFRVYALGWYRQEPGKERELVAAITNGGNTNYADSVKGRFTISRDNAKNTVYLQMYSLKPVDTAVYYCAATLNRYWFRLYYYLGQGTQVTVSS | high polyreactivity |
| QVQLVESGGGLVQAGGSHRLSCAASGRIFGCYTMGWYRQAPAKERELVAGITRRGGRTYYADSVKGRFTISRDTAKYTVYLQMNSLKPEDTAVYYCAVRSGVNFYYWGHGTQVTVSS | high polyreactivity |
| HVQLVESGRGLVEAGGSLRLSCAAYGLGCTVNAMVWYIQAPGTERELVARIVWPGITYADSVKGRFTISLDNAMNTVYLQMNSQKPEDTAVYYCAAVWLHHSYYAKYDYWGQRTQVTVSS | low polyreactivity |
| QVQLVESGGGLVQAGGSLRLSCAASGSIFRSYAMGWYRQAPGKERELVAGISYSGGSTYYADSVKGRFTISRDKAKNTVYLQMNSLKPEDTAVYYCNVDGGTYFFFVGAWGEYDYWGQGTQVTVSS | low polyreactivity |
| QVHLVESGGGLVQAGGSLRLSCAASGSIFYSYAMGWYRQAPGKERELVASINWSGASTYYADSVKGRFTISRDNAKNTVYLQMNSLKPEDTAVYYCAADWWGYDGRYDYWGQGTQVTVSS | high polyreactivity |
| QVQLVESGGGLVQAGGSLRLSCAASGRIFTLYAMGWYRQAPGKERELVAGISRSGGSTYYADSVKGRFTISRDNAKNTVYLQMNSLKPEDTAVYYCNAVPIYYAWRRNKPFDYWGQGTQVTVSS | low polyreactivity |
| QVQLVESGGGLVQAGGSLRLSCAASGSIFRYNAMGWYRQAPGKERELVAAIRSGGSTYYADSVKGRFTISRDNAKNTVYLQMNSLKPEDTAVYYCNARRYVGYDYWGQGTQVTVSS | high polyreactivity |
| QVQLVESCGGLVQAGGSLRLSCAASGRIFLVYAMGWYRQAPGKERELVAAISWSTGSTYYADSVKGRFTISRDNAKNTVYLQMNSLKPEDTAVYYCAAEPELDEFEHDYWGQGTQVTVSS | low polyreactivity |
| QVQLVESGGGLVQAGGSLRLSCAASGNTFDIYAMGWYRQAPGKERELVAAISRRGGSTYYADSVKGRFTISRDNAKNTVYLQMNSLKPEDTAVYYCNTYSGPYSISDYWGQGTQVTVSS | high polyreactivity |

| Sequence | polyreactivity (PSR sort gate) |
| --- | --- |
| QVQLVESGGGLVLAGGSLRLTCAASGRTFSQYTMGWYRQAPGKERELVAAISVSGTSTYYADSVKGRFTISRDNAKNTVYLQMNSLKPEDTAVYYCAAGYQRITRFAHRKYGYWGQGTQVTVSS | high polyreactivity |
| QVQLVESGGGLVQAGGSLRLSCAASGSTLWAYAMGWYRQAPGKERELVASISSGGNTNYADSVKGRFTISRDNAKNTVYLQMNSLKPEDTAVYYCAAVGYLYFWYPYDYWGQGTQLTVSS | low polyreactivity |
| QVLLEESVGGLDQAGGSLRLSCAASGFNFQTNAMGRYRQAPGKEREFVAAISDSGGSTNYADSVKGRFTISRDNAKNTGYLQMNSLKPEDSAVYYCATSFAVYDYDYWGQGTQVTVSS | low polyreactivity |
| LVQLVESGGGLVQAGGSLRLSCAASGFSFTSYTMGWYRQAPWKERELVAGISTNGGTTYYADSVKGRFTISRDNAKNTVYLQMNSLKPEDTAVYYCNAKRKYGRFPKKYYYWGQGTQVTVSS | high polyreactivity |
| QVQLVESGGGLVQAGGSLRLSCAASGRTFKRNPMGWYRQAPGKERELVAAISGTGSTNYADSVKGRFTISRDNAKNTVYLQMNSLKPEDSAVYYCNADIYSYRYPYVYWGQGTQVTVSS | low polyreactivity |
| QVQLVESGGGLVQAGGSLRLSCAASGSTFVYNVMGWYRQAPGKERELVAAIRWRGGSTYADSVKGRFTISRDNAKNSVYLQMTSLKPQDTAVYYSNTGHEEDEYDYWGQGTQVTVSS | low polyreactivity |
| QVQLVESGGGLVQAGGSLRLSCAASGNIFPPNTMGWDRQAPGKDRELVAAISSRGSRTYYADSVKGRFTISRDNAKNTVYLQMNSLKPEDTAVYYCAAQQWQGGYLYDYWGQGTQVTVSS | high polyreactivity |
| QVQLVESGGGFVQAGGSLRLSCAASGFTFGYYTMGWYRQAPGKERELVAAITYRGGRTYYADSVKGRFTISRDNAKNTVYLQLNSLKPEATAVYYGAARLLGKTGRTDSGAEGDYWGQGTQVTVSS | high polyreactivity |
| QVQLVESGGGLVQAGGSLRLSCAASGITFYGNAMGWYRQAPGTERELVAAITGGGGTNYADSVKGRFTISRDNAKNTVYLQMNSLKPEDTAVYYCNRDYFVWFQRGQYKRGSSWYDYWGQGTQVTVSS | low polyreactivity |
| QVQLVDSGGGLVQAGGSLRLSCAASGFTSTRYSMGWYREAPGKERELVAAISYGGGDTYYADSVKGRFTISRDNPKNTVYLQMNSLKPEDTAVYYCNARGRDRKSERRAFDYWGQGTQVTVSS | high polyreactivity |
| QVQLVESGGGLVQAGGSLRFSCAASGSIFITYAMGWYRQAPGKERELVAAISRSGGSTYYADSVKGRFTISRDNAKNTVYLQMNSLKPEDTAVYYCAAYPYSAGRYYYWGQGTQVTVSS | high polyreactivity |
| QVQLVESGGGLVQAGGSLRLSCAASGFTFRVYAMGWYRQAPGKERELVASITWSGASTYYADSVKGRFTISRDNAKNTVYLQMNSLKPEDTAVYYCAAKYSDYQYGRYYYWGQGTQVTVSS | high polyreactivity |
| QVQLVESGGGLVQAGGSLRLSCAASGYTILSYGMGWYRQAPGKERELVADISSGDRTNYADSVKGRFTISRDNAKNTVYLQMNSLKPEDTAVYYCNADRASSSVGYSDDFGHDSWGQGTQVTVSS | low polyreactivity |
| QVQLVESGGGLVQAGGSLRLSCAASGSIFIAYGMGWYRQEPGKERELVAAITVSGGNTYYADSVKGRFTISRDNAKNTVYLQMYSLKPEDTAVYYCADVTYWQDGHRGNYWGQGTQVTVSS | low polyreactivity |
| QVQLEDSGGGLVQAGGSLRLSCAASGFIFGLNAMGWNRQAPGKERELVAAIRSASSTNYADSVKGRFTISRDNAKNTVYLQMNSLKPEDTAVYYCAAEYVTYQHGFWGYDYWGQGTQVTVSS | low polyreactivity |
| QVQLVESGGGLVQAGGSLRLSCAASGRTFAPYAMGWYRQAPGKERELVAAISWSGGSTYYADSVKGRFTISRDNAKNTVYLQMNSLKPEDTAVYYCAADGGQTEFDYWGQGTQVTVSS | high polyreactivity |
| QVQLVESGGGLVQAGGSLRLSCAASGSIFASYAMGWYRQPPGKERELVAAISIGGTTNYADSVKGRFTISRDNAKNTVYLQMYSLKPEDTAVYYCNAGRWLFNYYYWIYDVRYDYWGQGTQVTVSS | high polyreactivity |
| QVQLVQTGRGLVQAGGSLRLICAASGIIFKYYGMGWYRQAPGKERELVAAITDRGGSTYYADSVKGRFTISRDHAKNTVYLQMNSLKPEDTAVYYCSAVPSSGKSGFRGGYWGQVTQVTVSS | high polyreactivity |
| QVQLVESGGRLVQAGGSLRLSCAASGSIIAWYVLGWYRRAAGKERELVAGIDTSGGSTFYADSVMGRFTISRDIAKNTVYLQMNSLKTEATAVYYCAADTWYRGPWEFDYWGQGTQVTVSS | low polyreactivity |
| QVQLVESGGGLVQAGGSLRLSCAASGSIFEPYVMGWYRQAPGKERELVAAIRQTGGSTYYADSVKGRFTISRDNAKNTVFLQMNSLKPEDTAVYYCNAKWYGWQRGTVKYDYWGQGTQVTVSS | low polyreactivity |
| QVQLQESGGGLVQAGGTITLGYYMGWYRQAPGKEREFVAGIDTGAITYYADSVKGRFTNSRDNAKNTVYLQMNSLKPEDTAVYYCAAIQTHTYAHSYCGQGTQVTVSS | high polyreactivity |
